Test results from publication PMC5435944.

Target: Mre11-Rad50 (hMR) WT-WT;Nbs1 (Homo sapiens;Homo sapiens, UniProt Q92878;P49959;O60934 1-1312;1-708;1-754, |)
Experiment: EMSA

Sequence of Mre11-Rad50 (hMR) WT-WT;Nbs1 (Q92878 whole entry, chain 1 of 3): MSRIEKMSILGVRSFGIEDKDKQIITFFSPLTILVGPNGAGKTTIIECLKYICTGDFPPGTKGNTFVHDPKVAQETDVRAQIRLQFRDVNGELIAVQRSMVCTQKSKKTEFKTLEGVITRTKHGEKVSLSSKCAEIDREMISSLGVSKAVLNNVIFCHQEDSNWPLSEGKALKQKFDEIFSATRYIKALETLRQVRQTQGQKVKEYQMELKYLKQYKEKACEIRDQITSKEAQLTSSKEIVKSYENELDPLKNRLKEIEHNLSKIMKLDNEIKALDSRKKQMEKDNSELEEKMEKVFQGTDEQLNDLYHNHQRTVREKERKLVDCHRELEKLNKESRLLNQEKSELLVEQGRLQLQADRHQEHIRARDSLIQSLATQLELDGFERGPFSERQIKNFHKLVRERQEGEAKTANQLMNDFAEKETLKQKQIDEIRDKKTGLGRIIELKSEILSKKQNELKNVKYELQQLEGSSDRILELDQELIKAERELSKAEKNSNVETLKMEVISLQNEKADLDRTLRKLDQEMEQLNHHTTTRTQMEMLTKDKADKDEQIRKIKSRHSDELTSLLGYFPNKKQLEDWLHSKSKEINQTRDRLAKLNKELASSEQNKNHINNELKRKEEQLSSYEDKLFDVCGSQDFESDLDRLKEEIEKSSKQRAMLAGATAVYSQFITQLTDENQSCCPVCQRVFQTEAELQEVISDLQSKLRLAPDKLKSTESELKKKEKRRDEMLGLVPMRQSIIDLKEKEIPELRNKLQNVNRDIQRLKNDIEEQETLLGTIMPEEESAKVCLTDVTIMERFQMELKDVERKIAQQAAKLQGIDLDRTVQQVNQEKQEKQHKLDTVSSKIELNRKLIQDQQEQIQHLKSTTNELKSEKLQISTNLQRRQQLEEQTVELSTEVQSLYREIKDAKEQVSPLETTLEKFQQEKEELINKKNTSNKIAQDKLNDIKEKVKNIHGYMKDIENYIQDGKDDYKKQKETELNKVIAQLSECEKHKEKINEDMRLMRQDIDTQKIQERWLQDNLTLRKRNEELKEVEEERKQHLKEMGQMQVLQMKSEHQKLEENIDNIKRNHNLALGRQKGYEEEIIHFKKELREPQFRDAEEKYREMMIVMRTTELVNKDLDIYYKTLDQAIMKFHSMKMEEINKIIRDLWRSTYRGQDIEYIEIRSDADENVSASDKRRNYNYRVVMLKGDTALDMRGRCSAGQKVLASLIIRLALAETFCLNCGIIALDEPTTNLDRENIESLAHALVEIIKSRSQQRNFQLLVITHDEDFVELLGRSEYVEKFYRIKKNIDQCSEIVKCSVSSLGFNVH
Sequence of Mre11-Rad50 (hMR) WT-WT;Nbs1 (P49959 whole entry, chain 2 of 3): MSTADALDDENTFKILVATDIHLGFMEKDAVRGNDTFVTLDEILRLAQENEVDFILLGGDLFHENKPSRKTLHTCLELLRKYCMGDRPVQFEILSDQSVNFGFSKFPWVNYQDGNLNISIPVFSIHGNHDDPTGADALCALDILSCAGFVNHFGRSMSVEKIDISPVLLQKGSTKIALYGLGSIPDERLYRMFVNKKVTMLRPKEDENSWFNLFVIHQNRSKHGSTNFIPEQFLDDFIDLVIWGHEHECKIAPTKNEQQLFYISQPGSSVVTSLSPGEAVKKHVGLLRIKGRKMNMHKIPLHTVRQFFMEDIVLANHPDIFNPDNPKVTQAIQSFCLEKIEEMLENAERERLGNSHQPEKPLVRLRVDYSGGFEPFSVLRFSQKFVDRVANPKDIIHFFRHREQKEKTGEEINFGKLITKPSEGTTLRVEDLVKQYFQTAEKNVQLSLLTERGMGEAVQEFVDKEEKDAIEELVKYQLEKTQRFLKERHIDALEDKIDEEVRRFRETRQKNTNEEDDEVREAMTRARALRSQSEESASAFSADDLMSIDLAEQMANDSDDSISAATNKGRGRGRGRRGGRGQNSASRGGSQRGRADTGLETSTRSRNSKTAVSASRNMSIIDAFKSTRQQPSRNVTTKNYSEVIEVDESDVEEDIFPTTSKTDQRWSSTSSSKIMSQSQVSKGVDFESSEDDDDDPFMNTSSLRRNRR
Sequence of Mre11-Rad50 (hMR) WT-WT;Nbs1 (O60934 whole entry, chain 3 of 3): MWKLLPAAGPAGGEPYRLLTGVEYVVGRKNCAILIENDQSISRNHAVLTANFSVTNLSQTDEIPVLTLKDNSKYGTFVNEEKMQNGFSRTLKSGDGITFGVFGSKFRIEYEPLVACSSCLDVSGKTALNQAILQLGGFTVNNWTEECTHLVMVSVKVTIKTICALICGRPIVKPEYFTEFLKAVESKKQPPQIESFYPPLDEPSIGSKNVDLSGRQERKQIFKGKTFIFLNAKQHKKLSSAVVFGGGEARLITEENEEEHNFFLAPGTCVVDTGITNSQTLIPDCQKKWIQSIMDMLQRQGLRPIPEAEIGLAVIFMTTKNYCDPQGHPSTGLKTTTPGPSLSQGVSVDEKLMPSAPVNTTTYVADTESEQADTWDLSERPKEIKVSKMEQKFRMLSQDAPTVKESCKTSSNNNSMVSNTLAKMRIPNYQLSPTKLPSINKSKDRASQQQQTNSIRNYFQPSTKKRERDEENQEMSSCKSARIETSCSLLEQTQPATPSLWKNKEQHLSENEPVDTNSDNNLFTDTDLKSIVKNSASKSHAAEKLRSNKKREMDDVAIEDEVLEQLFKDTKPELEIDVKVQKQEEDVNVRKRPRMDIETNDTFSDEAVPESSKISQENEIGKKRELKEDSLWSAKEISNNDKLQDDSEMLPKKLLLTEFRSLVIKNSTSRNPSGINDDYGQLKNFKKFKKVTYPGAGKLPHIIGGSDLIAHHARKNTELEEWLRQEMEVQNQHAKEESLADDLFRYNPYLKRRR

B1: TP4536/TP4559 (dsDNA)
DNA 1: TGGGTCAACGTGGGCAAAGATGTCCTAGCAATGTAATCGTCTATGACGTT
DNA 2: AACGTCATAGACGATTACATTGCTAGGACATCTTTGCCCACGTTGACCCA
modifications: 5' biotin-TEG on strand 1; five phosphorothioate bonds at 3' end of strand 2 (G*A*C*C*C*A)
- binding result: binds
